Reference: patent US10618965 (dated 2020)
Values belong to the binder of their own block, whether it stands above or below them.

Assays:
Assay in all cases: SPR, pH 7.0
mouse FcRn = molecular target: T1, mouse FcRn (mouse, UniProt Q61559)
T1 chain 1: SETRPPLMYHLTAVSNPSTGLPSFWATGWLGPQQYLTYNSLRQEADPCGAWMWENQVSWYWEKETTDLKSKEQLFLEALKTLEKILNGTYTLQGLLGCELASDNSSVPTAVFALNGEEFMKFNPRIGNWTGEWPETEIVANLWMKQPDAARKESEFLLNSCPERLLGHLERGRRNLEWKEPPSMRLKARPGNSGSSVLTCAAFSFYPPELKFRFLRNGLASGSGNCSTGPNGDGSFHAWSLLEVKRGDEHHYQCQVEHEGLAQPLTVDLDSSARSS
T1 chain 2: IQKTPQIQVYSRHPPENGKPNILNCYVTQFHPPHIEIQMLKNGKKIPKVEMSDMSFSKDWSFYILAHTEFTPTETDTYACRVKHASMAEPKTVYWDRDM

[1] = molecular target: human FcRn (with beta2-microglobulin) (human)
[2] = molecular target: human FcRn (with beta2-microglobulin) (human); remark: listed apart in the source

- binding result (mouse FcRn): no binding
B1: mIgG1 (antibody)
chain 1: DVQLQESGPVLVKPSQSLSLTCTVTGYSITSDHAWSWIRQFPGNKLEWMGYISYSGITTYNPSLKSRISITRDTSKNQFFLQLNSVTTGDTSTYYCARSLARTTAMDYWGQGTSVTVSSAKTTPPSVYPLAPGSAAQTNSMVTLGCLVKGYFPEPVTVTWNSGSLSSGVHTFPAVLQSDLYTLSSSVTVPSSTWPSETVTCNVAHPASSTKVDKKIVPRDCGCKPCICTVPEVSSVFIFPPKPKDVLTITLTPKVTCVVVDISKDDPEVQFSWFVDDVEVHTAQTQPREEQFNSTFRSVSELPIMHQDWLNGKEFKCRVNSAAFPAPIEKTISKTKGRPKAPQVYTIPPPKEQMAKDKVSLTCMITDFFPEDITVEWQWNGQPAENYKNTQPIMDTDGSYFVYSKLNVQKSNWEAGNTFTCSVLHEGLHNHHTEKSLSHSPGK
chain 2: not shown

- binding result [1]: no binding
B2: IgG2 (antibody)
chain 1: QVQLQESGPGLVKPSETLSLTCAVSGHSISHDHAWSWVRQPPGEGLEWIGFISYSGITNYNPSLQGRVTISRDNSKNTLYLQMNSLRAEDTAVYYCARSLARTTAMDYWGEGTLVTVSSASTKGPSVFPLAPCSRSTSESTAALGCLVKDYFPEPVTVSWNSGALTSGVHTFPAVLQSSGLYSLSSVVTVPSSNFGTQTYTCNVDHKPSNTKVDKTVERKCCVECPPCPAPPVAGPSVFLFPPKPKDTLMISRTPEVTCVVVDVSHEDPEVQFNWYVDGVEVHNAKTKPREEQFNSTFRVVSVLTVVHQDWLNGKEYKCKVSNKGLPAPIEKTISKTKGQPREPQVYTLPPSREEMTKNQVSLTCLVKGFYPSDIAVEWESNGQPENNYKTTPPMLDSDGSFFLYSKLTVDKSRWQQGNVFSCSVMHEALHNHYTQKSLSLSP
chain 2: not shown

- Kd [2]: 140 nM
B3: IgG2-F939 (antibody)
chain 1: QVQLQESGPGLVKPSETLSLTCAVSGHSISHDHAWSWVRQPPGEGLEWIGFISYSGITNYNPSLQGRVTISRDNSKNTLYLQMNSLRAEDTAVYYCARSLARTTAMDYWGEGTLVTVSSASTKGPSVFPLAPCSRSTSESTAALGCLVKDYFPEPVTVSWNSGALTSGVHTFPAVLQSSGLYSLSSVVTVPSSNFGTQTYTCNVDHKPSNTKVDKTVERKCCVECPPCPAPPVRGPKVFLFPPKPKDTLYISRTPEVTCVVVDVSHEDPEVQFNWYVDGVEVHNAKTKPREEQFNSTFRVVSVLTVVHQDWLNGKEYKCKVSNKGLPAPIEKTISKTKGQPREPQVYTLPPSREEMTKNQVSLTCLVKGFYPSDIAVEWESNGQPENNYKTTPPMLDSDGSFFLYSKLTVDKSRWQQGNVFSCSVMHEALHYHVTQKSLSLSP
chain 2: not shown
